Experiment: yeast display, Sf9 membrane polyspecificity reagent, FACS + sequencing; frameworks hold sequencing errors
In short: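 Nanobodies came from a synthetic yeast display library in Saccharomyces cerevisiae BJ5465, induced with galactose for 36–48 hours and stained for 1 hour at 4 °C with 10% biotinylated, detergent-solubilized Sf9 membrane reagent. Cells were enriched on streptavidin microbeads and then FACS-sorted, with low and high (top ~1%) gates set on anti-HA fluorescence for expression and streptavidin fluorescence for reagent binding. Each polyreactivity label reflects the gate a clone came from. Genes were amplified by colony PCR, sequenced by MiSeq 2 × 250 and filtered by CDR length.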

Sequence | polyreactivity (PSR sort gate)
QVQLEESGGGLVQAGGSLRLSCAASGIIFITYAMGWYRQAPGKEREMVAAITNSGGGTYYADSVKGRFTISRDNAKNTVYLQLNSLKPEDTAVYYCAARKTAYGYRYDYWGQGTQVTVSS | high polyreactivity
QVQLVESGGGLVQAGGSLRLSCAASGIIFRGYAMGWYRQAPGKERELVASITRRGGSTRYADSVKGRFTISRDNAKNTVYLQMNSLKPEDTAVYYCAAVRVHTDRYNYWGQGTQVTVSS | high polyreactivity
QVQLVESGVGLVQAGGSLRLSCAASGRIFGFYAMGWYRQAPGKESELVAAITVSGSSTRYADSVKGRFTISRDIAKNTFYLQMNSLKPEDTGVYYCAAFNRCSGGFDYWGQGTQVTVSS | high polyreactivity
QVQLVESGGGLVQGGGSLRLSCAASGRTLSYYAKGWYRQAPGKERELVADISWSGGSTYYADSVKGRFTISRDNAKNTVYLQMNSLKPEDTAVYYCAARVPGSIRSVGSVKQKYYYWGQGTQVTVSS | high polyreactivity
QVQLVESGGGLVQAGGSLRLSSAASGLTFHRYAMGWYRQAPGKERELVAGISWSGASTYFADSVKGRFTISRDNAKNTVYLQMNSLKPEDTAVYYCAAVVPGLAYYRHGYWGQGTQVTVSS | high polyreactivity
QVQLVESGGGLVQAGGSLRLSCAASGRTFLYVMGWYRQAPGKERELVAAISRGGSTSYADSVKGRFTISRDNAKNTVYLQMNSLKPEDTAVYYCAATNYWRDGYWGQGTQVTVSS | high polyreactivity
QVHLVDSGGGLVQAGGSLRLSCATSGRIFGAYAMVWYRQAPGKESELVAAITSRGGNTYYADSVKGRFTISRDNAKNTVYLQMNSLKPEDTAVYYCAAGHDKRRQYYVGQSAFDYWGQGTQLTVSS | low polyreactivity
QVQLVDSGGGLVQAGGSLRLSCAASGFIFIRNARGWYRQAPGKESQLVAAIRYRGGNTYYADSVKGRFTISRDNAKNTVYLQMNSLKPEDTAVYYCNAAGSYYTRSDSGYWGQGTQVTVSS | high polyreactivity
QVQLVESGGGLVQAGGSLRLSCTASGFTSRIYAMGWYRQAPVKERELVAAITRGVSTNYSDSVKGRFTISRDNAKNTVYLQMNSLKPEDTAVYYCAARTSGSYPYRTINEYWGQGTQVTVSS | high polyreactivity
QVQLVESGGGLVQAGGSLRLSCAASGSIFVLYAMGWYRQAPGKERELVAAINYDGASTYYADSVKGRFTISRDNAKNTVYLQMNSLKREDTAVYYCAKRFGPAYFRLYDYWGQGTQVTVSS | low polyreactivity
QVQLVESGGGLVQAGGSLRLSCAASGFTFISYAMGWYSQAPGQERELVAAISSTGGSTYYADSVKGRFTSSRDTAKKTVYLQMNSLKPEETAVYYCNAVYWYTSEYDYWGQGTQVTVSS | high polyreactivity
QVQLVESGGGLVQAGGSLRLSCAASGSIFRYNAMGWYRQAPGKERELVAAISASGGRTHDADSVKGRFTISRDNAKNTVYLQMNSLKPEDTAVYYCAAATYRGTSLYGYWGQGTQVTVSS | high polyreactivity
QVQLVESGGGLVQAGGSLRLSCAASGRIFSRYAMGWYRQAPGTERELVAAINKSGGSTYYADSVKGRFTISRDNAKNTVYLQMNSLKPEDTAVYYCNAVYYWYKGDYWGQGTQVTVSS | high polyreactivity
QVQLVDTGGGLVQAGGSLRLSCAASGITFYFYVMGWYRQAPGKERELVADISTSDDSTYYADSVKGRFTISRDNAKNTVYLQMNSLKPEDTAVYYCATATRTYSAWYEYVYWGQGTQVTVSS | low polyreactivity
QVQLVESGGGLVQAGGSLRLSCAASGFIFRSYVMGWYRQAPGKERELVAAITRSGVRTYYADSVKGRFTISRDNAKNTVYLQMNSLKPEDTAVYYCNADFSATRYWPGNYWGQGTQVTVSS | high polyreactivity
QVQIVESGGGLVQAGGSLRLRCAASGRIFSWNAMGWSRQAPGKERELVPAITWRGTSTYYADSVKGRFTISRDIAKNTVYLQMISLKPEDTAVYFCNVGLYRDWYTFGLEYDYWGQGTQVSVSS | low polyreactivity
QVQLVESGGGLVQAGGSLRLSCAASGRTFTRNAMGWYRQAPGKERELVAVITSSGRTNYADSVKGRFTISRDNAKKTVYLQMNSLKPEDTAVYYCNKVSARYPYPLYDYWGQGTQVTVSS | high polyreactivity
QVQLVESGGGLVQAGGSLRLSCAASGYTFDPNAMGWYRQAPGKERELVAAISRIGGSTYYADSVKGRFTISRDNAKNTVYLQMKSLKPEDTAVYYCAVDWYLTGHWADDYWGQGTQVTVSS | low polyreactivity
QDQLVESGGGLVQAGGILRLSCAASGSTFFHYAMGWYRQAPGQEREFVAANDSNGGSTYYADSVKGRFSISRDNAKNTVYLQMTCLKPEETAVNYCAADDLAEFEYDYWGQGTQVTVSS | low polyreactivity
QVQLVESGGGLVQAGGSLRLSCAASGRIFGVYAMGWYRQAPGKERELVAAISGSTTLTYYADSVKGRFTISRDTAKNTVDLQMNSLKPEDTAVYYCAARSYTPSYKMDYWGQGTKVTVSS | high polyreactivity
QVQLVESGGGLVQAGGSLRLICAASGLTLYPYAMGWYRQAPGKERELVAAISGAGTRTYYADSVKGRFTISRDNAKNTVYLQMNSLKPEDTAVYYCAAVGFRPYDYWGQGTQLTVSS | high polyreactivity
QVQLVESGGGLVQAGGSLRLICAASGSIFADYAMGWYRQAPGKERELVAAITGGTSTYYADSVKGRFTISRDNAKNTVYLQMNSLKPEDTAVYYCAAYYYWEFSYYEYDYWGQGSQVTVSS | low polyreactivity

Sequence | polyreactivity (PSR sort gate)
QVQLVESGGGLVQAGGSLRLSCAASGYTFFFNVMGWYRQAPGKVRELVAAISYSGGSTNYADSVKGRFTISRDNAKNTVYLQMNSLKPEDTAVYYCNARSVSRNGYEDVYWGQGTQVTVSS | low polyreactivity
QVQIVESGGGLVQAGGSLRLSCAASGSTLGVNAMGWYRQAPGKERELVAAISKSGGGTYYADSVKGRFTISRDIAKNTVYLQMNRLIPEDTAVYYCNAPVSRKYYSWGQGTQVTVSS | high polyreactivity
QVQLVESGGGLVQAGGSLRLSCAASGRTFANNAMGWYRQAPGKERELVARISNSGSTNYADSVKGRFTISRDNAKNTVYLQMNSLKPEDTAVYYCAARIVRLYSRYDYWGQGTQVTVSS | low polyreactivity
QVQLVESGGGLVQAGGSLRLTCAASGSTFYFNAIGWYRQAPGKESELVAAISGGGRTNYADSVKGRFTISRDNAKNTVYLQMNSLKPEDTAVYYCAARNRGLRLSNYFGGNYNRDYWGQGTQVTVSS | low polyreactivity
QVQLVESGGGLVQAGGSLRLSCAASGSTFYDYAMGWYRQAPGKESELVAAITSSGASTYYADSVKGRFTISRDNAKNTVYLQMNSLKPEDTAVYYCAARKVWRSIRVALDYWGQGTQVTVSS | high polyreactivity
QVQLVESGGGLVQAGGSLRLSCAASGSTFGYYAMGWYRQAPGKERELVAAITRRSGRTYYADSVKGRFTISRDNAKNTVYLQMNSLKPEDTAVYYCNKVYPTYYYYRGGPTEYDYWGQGTQVTVSS | high polyreactivity
QVQLVESGGGLVQAGGSLRLSCAASGRILSLYAMGWNRQAPGKERELVASINWSDGSTYYADSVKGRFTISRDNAKNTVYLQMNSLKPEDTAVYYCTVDVRSYVAGYDYWGQGTQVTVSS | low polyreactivity
QVQLVESGGGLVQAGGSLRLSCAASGRTFRYYAMGWNRQAPGKESELVASISRSGGSTYYADSVKGRFTISRDNAKITVYLQMNSLKPEDTAVYYCAVGKGSHYLGFDYWGQGTQVTVSS | high polyreactivity
QVQLVESGGGLVQAGGSLRLSCAASGLTFQNNAMGRSRQAPGKERELVAVITRIGGSTYYADSVKGRFTISRDNAKNTVYLQLNSLKPEDTAVYYCAVRRRYTPGYDYWGQGTQVTVSS | high polyreactivity
QVQLVESGGGLVQARGSLRLSCAASGSTFGLYAMGWYRQAPGKERELVAAISYSGSSTYYADSVKGRFTISRDNAKNTVYLQMNSLKPEDTAVYYCAARRSEHGYNYWGQGTQVTVSS | high polyreactivity
QVQLVESGGGLVQAGGSHRLSCAASGIIFILYTMGWYRQAPGKERELVATISSGGGSTFYADSVKGRFTISRDNAKNTVYLQMNSLKPEDTAVYYCAAYPVFGYSYDYWGQGTQVTVSS | low polyreactivity
QVQLVESGGGLVQAGGSLRLSCAASGFIFTSYARGWYRQAPGKDRELVAAITRSGASTSYADSVKGRFTISRDNAKNTVYLQMNSLKPEDTAVYYCAAKAPLPRYYVPRYDYWGQGTQVTVSS | high polyreactivity
QVQLVESGGGLVQAGGSLRLSCAASGITFNAYVMGWYRQAPGKERELVATISQSGGSTYYADSVKGRFTISRDNAKNTVYLQMNSLKPEDTADYYCAARKYGYSYTVTRYYWGQGTQVTVSS | high polyreactivity
QVQLVESGGGLVQAGGSLRLSCAASGSTFPLYAMGWYRQAPGKERELVAAITSGGGNTYYADSVKGRFTISRDNAKNTVYLQMNSLKPEDTAVYYCAAVGGYKSYYSYEYDYWGQGTQVTVSS | low polyreactivity
QVQLVESGGGLVQAGGSLSLICAASGYTLKYYAMGWYRQAPGKERELVAVISRGGSTYYADSVKGRFTISRDNAKNTVYLQMNSLNPEDTAVYYCAKRPTQGYYPYGYWGQGTQVTVSS | high polyreactivity
QVQLVESGGGLVQAGGSLRLSCAASGRIFSYYAMGWYRQAPGKERELVAAISRSGVRTYYADSVKGRFTISRDNAKNTVYLQMNSLKAEDTAVYYCAASGKRFAYIKGRSRPAYGYDYWGQGTQVTVSS | high polyreactivity
QVQLVESGGGLVQAGGSLRLSCAASGGIFGRYAMGWYRQAPGKERELVAGLSYSGGSTYYADSVKGRFTISRDNEKNTVYLQMTSLKAEDTAVYYCAADTRRTYENYYWGQGTQVTVSS | high polyreactivity
QVQLVESGGGLVQAGGSLRLSWAASGRIFASYAMGWYRQATGKERELVAAISGSGGSTYYADSVKGRFTMSRDNAKKTVYLQLNSLKPEDTAVYYCAARYRSYWYRYVGYDYWGQGTQVNVSS | high polyreactivity
QVQLVESGGGLVQAGGSLRFSCAATGSIFVVNAMGWYRQAPGKERELVASITWSGDNTYYADSVKGRFTISRDNAKNTVYLQMNSLKPEDTAVYYCAATIWIAYRGWYSDYNYWGQGTQVTVSS | low polyreactivity
QVQLVESGGGLVQAGGSLRLSCAASGRTFRNYAMGWYRQAPGKERELVAAISRSGGITYYADSVKGRFTISRDNSKNTVYLQMNSLKPEDTAVYYCAARHTYQGPGTYPMFYWGQGTQVTVSS | high polyreactivity
QVQLVESGGGLVQAVGSLRLSCAASGSIFTPYAMGWYRQAPGKERELVAAISGSGGSTRYADSVKGRFTISRDNATNTVYLQMNSLKPEDTAVYYCAADRYTYIWYHIYDYWGQGTQVTVSS | low polyreactivity
